Laboratory results taken from the supplement of paper PMC12042874.
± gives the uncertainty stated by the source.

Assay: amyloid nucleation score (Sup35N fusion, yeast selection) (log enrichment); library NNK1; higher = more nucleation; inactive = no reads after selection
In short: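 For the nucleation score, DiMSum gave the log enrichment of output over input reads, centred on the mode score of non-aggregating sequences. Psi-negative yeast expressing Sup35N fused to peptides of 20 random codons were induced with 100 μM copper sulfate for 24 hours and grown 7 days at 30°C on medium lacking adenine and uracil. Input and output plasmid inserts were Illumina-sequenced, and sequences with under 100 input reads were excluded.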

Row | Substance | amyloid nucleation score
1 | NIEVYDFYNINSMYNV | 4.54 ± 0.079
2 | NIHGDGWSYVLNAIGSELD | 0.154 ± 0.43
3 | NIIIVNSSVG | 1.49 ± 0.37
4 | NIRKPNLNTMTDRLDWSVQS | -0.102 ± 0.47
5 | NISRAVHTRMGGYMSPTWLK | 0.833 ± 0.5
6 | NKKESGWY | -0.387 ± 0.97
7 | NKLTSCTVSHCL | -0.125 ± 0.44
8 | NKMGFFNTISGKRS | -0.556 ± 0.59
9 | NKQARVRETRVGLTCVGMLG | -0.321 ± 1.2
10 | NLALITWFESYCQTMRSAWI | -0.145 ± 0.26
11 | NLDKNGYRTCNLKISYHMSR | 1.28 ± 0.32
12 | NLDYDVESRVTEVWGVLSGC | 1.92 ± 0.56
13 | NLFIPILVYHDVSRYSLRMD | 6.483 ± 0.055
14 | NLFVKFLNSRRCINFMTMFD | -0.01 ± 0.77
15 | NLINSIGIVEAWEILPASSR | 0.124 ± 1.2
16 | NLLGYVNVQVGAVYTGNNRL | 7.602 ± 0.066
17 | NLLHESCRVLYS | 0.398 ± 0.5
18 | NLLTWRD | 0.743 ± 0.64
19 | NLNTASQNIASLGLGALVLW | 0.073 ± 0.44
20 | NLQSCLVYKVSVGNLPLIYL | -0.45 ± 1.2
21 | NLSFLK | -0.313 ± 1.3
22 | NLSIRCLASFCPTGESWIRV | 0.971 ± 0.79
23 | NLVRLILRCSDRAKRFLRAL | -0.218 ± 0.36
24 | NLVRLVRIARCSMRSSVGTL | 1.23 ± 0.16
25 | NLWGSFTCYLFVIGNHWFGI | 6.96 ± 0.084
26 | NLYPDLGVLVGCHSDKWSNL | -0.115 ± 1.3

Row | Substance | amyloid nucleation score
27 | NLYYWYGTVSIWFYNRWFGV | -0.021 ± 0.66
28 | NMLWSGITKFGGRGLKSMVV | -0.169 ± 0.88
29 | NMQLAPTGPNTVPISYDLFP | -1.46 ± 2.4
30 | NMRTNNVGVGLPSFMHNSSF | inactive
31 | NMRVFWSARRQALFQWRIL | 0.807 ± 0.71
32 | NMSESCNMDTLYGYDLRQWV | 0.088 ± 0.33
33 | NNHKLAFTVVTPIEDHFRMR | 0.674 ± 0.46
34 | NNLVFHGSKHNIKVRRMEMG | -1.14 ± 2.7
35 | NNPEINFYKVWAIKSYF | 2.83 ± 0.13
36 | NNSHFQSNGNIWSNNSSPSA | inactive
37 | NNSKFMWQLSNWSWYTWHYI | -0.392 ± 0.83
38 | NNSLISTGVRMNHVVLR | -0.091 ± 0.9
39 | NNVRVDKACGEAMEDEKRVV | 0.672 ± 0.37
40 | NNVRYT | inactive
41 | NNYLCAEWFVTGVSTPLTTS | 0.735 ± 0.55
42 | NNYVYLSLSFPVGTVC | -0.377 ± 0.61
43 | NPAITGRFSYCT | 0.456 ± 1.2
44 | NPSFNPWNDHHYCTSGMCML | 0.562 ± 0.81
45 | NQDFLTLALKWRCECFHTKL | -0.247 ± 1.9
46 | NQDMVNMIHETFIVLARVVI | -0.059 ± 0.38
47 | NQDVTPVMRVVLDSSPTLSS | 2 ± 0.6
48 | NQIFVQCSVGKAWDRSKSVD | 4.12 ± 0.081
49 | NQTNFDVSLY | 4.64 ± 0.055
50 | NRAECSFVCTEYVNICK | -0.313 ± 0.43
51 | NRCVAGRWPNSFVVLGHTFN | -0.211 ± 0.71
52 | NRDYTVFKTRVFKSIFRIR | 0.505 ± 0.78

Row | Substance | amyloid nucleation score
53 | NREIPQWIGFVY | 1.12 ± 0.65
54 | NRGSRTVLWDGNWAGTNTMP | -0.154 ± 0.47
55 | NRLCDK | 1.25 ± 0.35
56 | NRLVMLLLTLSNGSCEKVRD | 2.95 ± 0.094
57 | NRNISAIGACTGCTNMVFYS | 5.64 ± 0.11
58 | NRPGEINKWSTLIDGVTRFS | 0.335 ± 0.41
59 | NRRVCEVR | -0.148 ± 1.1
60 | NRSGGTSAIDYHSWLVYHAG | -0.161 ± 0.28
61 | NSFVTVFLRWKYFVMSDMWP | -0.139 ± 0.25
62 | NSIYHYIVNTFYLNFMGWIE | 1.25 ± 0.79
63 | NSKCSLIQCTGPLVRERRSY | 0.058 ± 0.31
64 | NSLCYVVWVVVMTVNYYHHW | 0.557 ± 0.5
65 | NSMNLNG | inactive
66 | NSRSGLMNLVEKSLLYKMLY | -0.007 ± 0.48
67 | NSRSVVLMSVDFIILGYDKM | 3.56 ± 0.17
68 | NSSPNKCFAGSQGSFISFWD | -0.599 ± 0.62
69 | NSWVSINMCNVFGPHCMWTV | 7.21 ± 0.074
70 | NSYLSND | inactive
71 | NTAFSERTWLVRFKMVPRWK | 0.647 ± 0.83
72 | NTDYSQAGVCGSRCLNSAL | 1.54 ± 0.69
73 | NTISMFDMLQISKTSQHQFA | 0.387 ± 0.45
74 | NTLYYRSFRAIQLPGGENQN | -1.09 ± 1.9
75 | NTQNRSEVNQGVVGQVR | -0.378 ± 0.36
76 | NTVRNMSVNELFVSFDRGWF | 4.83 ± 0.063
77 | NVGVRLMCVSWSVHDQLA | 1.66 ± 0.35
78 | NVHWRDVGGMLFRRNNIRRI | 5.222 ± 0.052

Row | Substance | amyloid nucleation score
79 | NVIFPTYRFVRFPSYMTLGW | inactive
80 | NVIGISATNASLSLVLISVI | -0.509 ± 0.32
81 | NVIID | inactive
82 | NVIRTQQSR | 0.208 ± 0.52
83 | NVISRSLVMYMYKEERPASA | 0.031 ± 0.27
84 | NVLGLFQLRDSTQNGAMYIL | 0.076 ± 0.62
85 | NVLTVCCVGLIKSSVSLIEN | 8.418 ± 0.065
86 | NVRGSWVIMCYFTYVWMLGR | 0.017 ± 0.35
87 | NVRYFLWGNAETIYL | 0.769 ± 0.29
88 | NVSISVR | -0.054 ± 0.38
89 | NVSKDS | -0.063 ± 0.54
90 | NVVYMYSSASEYVWHRRLGF | -0.993 ± 0.43
91 | NVWSKWCERGNSDPIVPQAA | -0.458 ± 0.35
92 | NVYAMCTITMNYSVVVTHSC | 3.35 ± 0.15
93 | NVYSIYIINYMAYKVFWDMI | -0.116 ± 0.29
94 | NWGCFQYSGTGNRLGTNAPV | -0.999 ± 0.68
95 | NWIVCRPDAGMQPRTNNLIV | -0.536 ± 0.58
96 | NWLFRQCGSQMMVYVFEFFY | -0.776 ± 0.59
97 | NWNCICFLDPISRDTLYPQ | 8.489 ± 0.046
98 | NWVLHIRDCRAKALPLITDW | -0.034 ± 0.45
99 | NYFSQKWFTTGRTPRMMDMW | -0.007 ± 0.32
100 | NYHMIVRLASLKKQW | 0.109 ± 0.46
101 | NYICMGP | 1.38 ± 0.41
102 | NYITCC | 1.37 ± 0.1
103 | NYLTHG | 0.311 ± 0.37
104 | PAALAWTNFLKASYDLKMGA | -0.587 ± 1.3

Row | Substance | amyloid nucleation score
105 | PAGNNYDNNVSNNGTCKEFW | 0.294 ± 0.28
106 | PANSSMSSNY | 0.091 ± 1.5
107 | PCALGECRLVNSVISRGFGR | 0.38 ± 1.2
108 | PCLSDMRLTSAEKGFV | 0.455 ± 0.69
109 | PCSFNA | -0.267 ± 0.72
110 | PCTPYLSTYVPLNEK | -0.017 ± 0.31
111 | PDDNMMVLGVSSADNLLIRL | 0.579 ± 0.66
112 | PDNRAINVFTLPVAVS | 0.71 ± 0.44
113 | PEAPPLLIVSGFN | 1.2 ± 0.79
114 | PECTSVRATGIGDWWEDRGA | -1.46 ± 2.7
115 | PELAGRLSVRDLLW | 0.059 ± 0.47
116 | PESCANSWSMSYGAFGAVYC | inactive
117 | PETIW | 1.49 ± 0.5
118 | PEVSIFFLFLGMVYLMWQWV | -0.839 ± 0.7
119 | PFINVLSICLLIWALVPVDS | inactive
120 | PFQYADGTFF | 4 ± 0.15
121 | PFRSFLCRVIRALGLY | 0.212 ± 0.95
122 | PFVDFVVSRNYLRL | 0.572 ± 0.61
123 | PFYRNLFSWAGYILLCGCHE | -0.775 ± 0.75
124 | PGFFWHICFG | 4.55 ± 0.082
125 | PGMNSRCCA | 0.48 ± 0.72
126 | PGRIYGRSGCYRV | 0.482 ± 0.69
